Assay results taken from patent publication US20200172582A1 (UNIVERSITY OF FLORIDA RESEARCH FOUNDATION, published 2020).

Tests used:
[1] = target: T1, SIGNR1-hFc (extracellular region of murine SIGNR1 fused to the Fc part of human IgG1) (mouse; human, UniProt Q8CJ91 74-325; P01857 104-330 = IgG part, limits assumed); assay: flow cytometry of SlpA-coated beads with hFc fusion proteins
T1 construct: extracellular domain;domain: Fc part of human IgG1; Expressed in CHO-S cells
Procedure: (§1) FIGS. 5A-5D. L. acidophilus NCK2187 and its SlpA bind to murine SIGNR3 to induce regulatory signals. A. B6 mice were orally gavaged with 10⁹ CFU NCK56 or NCK2187 and the colonic gene expression of C-type lectin receptors were measured by RT-PCR. Each box represents an individual mouse; n=4. Data represent three individual experiments and are shown as mean±SEM. B. Binding of SlpA to various hFc fusion proteins were analyzed by flow cytometry. Gray tinted line=SlpA-coated beads only; orange=SlpA-coated beads+secondary antibody; green=SlpA-coated beads+control fusion protein; blue=SlpA-coated beads+SIGNR1-hFc; red=SlpA-coated beads+SIGNR3-hFc. Binding assays results were confirmed five independent times. C. […] production by colonic DCs of naïve WT B6 GF or Signr3^{-/-} mice treated with NCK56 (blue) or NCK2187 (green) on days 0, 3, 6, and 9, or left untreated (black), as determined by flow cytometry. D. Frequency of colonic FoxP3⁺ Tregs in KO mice treated with NCK56 or NCK2187 was measured by flow cytometry. n=5 mice/group. Data represent four individual experiments and are shown as mean±SEM. *P<0.05. […]
(§2) C-type lectin receptors, SIGNR1 and SIGNR3, were fused to the Fc part of human IgG1 (SIGNR1-hFc and SIGNR3-hFc) as previously described (Eriksson et al., 2013). […] Binding of SlpA-coated beads (Dynabeads MyOne Carboxylic Acid, Life Technologies) to fusion proteins was analyzed by flow cytometry.

[2] = target: T2, hFc (human, UniProt P01857-1 104-330 = IgG part, limits assumed); assay: as above
T2 construct: domain: Fc; Fc-only control in the SlpA bead assay; also called human Fc
Procedure: as §1, §2

T1 sequence (Q8CJ91 other isoform, or with tags, fused parts or gaps limits assumed): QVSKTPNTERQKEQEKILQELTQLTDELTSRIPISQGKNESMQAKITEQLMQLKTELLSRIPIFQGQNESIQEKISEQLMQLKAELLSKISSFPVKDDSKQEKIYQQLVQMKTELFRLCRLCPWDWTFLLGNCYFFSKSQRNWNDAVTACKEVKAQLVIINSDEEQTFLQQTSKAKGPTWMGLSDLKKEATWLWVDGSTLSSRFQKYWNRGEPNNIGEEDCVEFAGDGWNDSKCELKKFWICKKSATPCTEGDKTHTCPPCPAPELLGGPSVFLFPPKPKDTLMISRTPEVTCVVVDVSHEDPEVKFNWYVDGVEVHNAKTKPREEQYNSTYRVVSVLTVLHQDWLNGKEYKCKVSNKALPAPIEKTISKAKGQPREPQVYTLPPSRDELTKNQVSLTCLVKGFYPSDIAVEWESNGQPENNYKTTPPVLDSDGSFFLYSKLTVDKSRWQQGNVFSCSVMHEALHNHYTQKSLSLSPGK

binding result [1]: no binding
binding result [2]: no binding
B1: Lactobacillus acidophilus surface layer protein A (SlpA), purified from strain NCK2187 (other)
chain: AVSTVSAATTINASSSAINTNTNAKYDVDVTPSVSAVAANTANNTPAIAGNLTGTISASYNGKTYTANLKADTENATITAAGSTTAVKPAELAAGVAYTVTVNDVSFNFGSENAGKTVTLGSANSNVKFTGTNSDNQTETNVSTLKVKLDQNGVASLTNVSIANVYAINTTDNSNVNFYDVTSGATVTNGAVSVNADNQGQVNVANVVAAINSKYFAAQYADKKLNTRTANTEDAIKAALKDQKIDVNSVGYFKAPHTFTVNVKATSNTNGKSATLPVVVTVPNVAEPTVASVSKRIMHNAYYYDKDAKRVGTDSVKRYNSVSVLPNTTTINGKTYYQVVENGKAVDKYINAANIDGTKRTLKHNAYVYASSKKRANKVVLKKGEVVTTYGASYTFKNGQKYYKIGDNTDKTYVKVANFR
notes: Native protein extracted from the surface of L. acidophilus NCK2187 with 5 M LiCl or 5 M NaCl (46 kDa band); In the assays it was coated on carboxylated beads or ELISA plates, blotted, or pulsed onto RAW 264.7 cells; also called L. acidophilus-SlpA; purified SlpA
